From US20220378956A1

Legend:
soluble uPAR (suPAR) [1] = target: soluble uPAR (suPAR) (UniProt Q03405); assay: SPR (Biacore 2000), antibody captured on protein A/G surface, suPAR injected, 25 C, 1:1 Langmuir fit
soluble uPAR (suPAR) [2] = target: soluble uPAR (suPAR) (UniProt Q03405); assay: SPR (Biacore 2000), antibody captured on rabbit anti-mouse surface, suPAR injected, 25 C, 1:1 Langmuir fit

Row | Kd (soluble uPAR (suPAR) [1]) [nM] | Kd (soluble uPAR (suPAR) [2]) [nM] | Substance
1 | 0.39 | – | Human Engineered ATN-658 variant HE ATN-4, renamed humanized mAb MNPR-101 (antibody)
2 | – | 0.38 | mouse monoclonal antibody ATN-658
